Laboratory results from the supplement of paper PMC5998384.

Assays:
HeLa Kyoto [1] = experiment: solubility in G1/S (NP-40 vs SDS abundance) (log2 ratio); higher = more soluble; details: cell cycle stage: G1/S
HeLa Kyoto [2] = experiment: melting temperature (median over replicates), in situ; higher = more thermally stable
HeLa Kyoto [3] = experiment: solubility change mitosis vs G1/S (difference of NP-40 vs SDS log2 ratios) (log2 ratio difference); higher = more soluble in mitosis
HeLa Kyoto [4] = experiment: thermal stability score vs G1/S (z-score of summed log2 fold changes over temperatures); higher = more thermally stable than in G1/S
[5] = cell cycle stage: early G1 (4.5 h after nocodazole release)
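Wherever melting temperature (median over replicates), in situ is given: HeLa Kyoto cells synchronized by double thymidine or nocodazole block, proteins quantified by TMT10plex mass spectrometry, three independent biological replicates.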
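Wherever solubility change mitosis vs G1/S (difference of NP-40 vs SDS log2 ratios) is given: synchronized HeLa Kyoto cells (double thymidine block for G1/S, nocodazole release for mitosis), protein amounts in NP-40 versus SDS lysates quantified by mass spectrometry, three biological replicates.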
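Wherever solubility in G1/S (NP-40 vs SDS abundance) is given: HeLa Kyoto cells arrested at G1/S by double thymidine block, proteins quantified by TMT10plex mass spectrometry in mild NP-40 versus SDS extracts, three biological replicates.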
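Wherever thermal stability score vs G1/S (z-score of summed log2 fold changes over temperatures) is given: synchronized HeLa Kyoto cells, proteins quantified by TMT10plex mass spectrometry, three biological replicates, mitosis taken 0.5 h after nocodazole release, G1/S directly after double thymidine block.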

| Sequence | solubility in G1/S (log2) (HeLa Kyoto [1]) | melting temperature (HeLa Kyoto [2]; cell cycle stage: G1/S) [°C] | melting temperature (HeLa Kyoto [2]; cell cycle stage: mitosis) [°C] | solubility change mitosis (log2) (HeLa Kyoto [3]) | thermal stability score (HeLa Kyoto [4]; [5]) | thermal stability score (HeLa Kyoto [4]; cell cycle stage: mitosis) |
| --- | --- | --- | --- | --- | --- | --- |
| MRLSWFRVLTVLSICLSAVATATGAEGKRKLQIGVKKRVDHCPIKSRKGDVLHMHYTGKLEDGTEFDSSLPQNQPFVFSLGTGQVIKGWDQGLLGMCEGEKRKLVIPSELGYGERGAPPKIPGGATLVFEVELLKIERRTEL [FKBP2] | 0.262 | 53.1 | 54.8 | -0.0211 | 1.33 | 1.16 |
| MPLSDFILALKDNPYFGAGFGLVGVGTALALARKGVQLGLVAFRRHYMITLEVPARDRSYAWLLSWLTRHSTRTQHLSVETSYLQHESGRISTKFEFVPSPGNHFIWYRGKWIRVERSREMQMIDLQTGTPWESVTFTALGTDRKVFFNILEEARELALQQEEGKTVMYTAVGSEWRPFGYPRRRRPLNSVVLQQGLADRIVRDVQEFIDNPKWYTDRGIPYRRGYLLYGPPGCGKSSFITALAGELEHSICLLSLTDSSLSDDRLNHLLSVAPQQSLVLLEDVDAAFLSRDLAVENPVKYQGLGRLTFSGLLNALDGVASTEARIVFMTTNHVDRLDPALIRPGRVDLKEYVGYCSHWQLTQMFQRFYPGQAPSLAENFAEHVLRATNQISPAQVQGYFMLYKNDPVGAIHNAESLRR [BCS1L] | -0.165 | 55.4 | 54.8 | -0.291 | 0.147 | -1.22 |
| MLKALFLTMLTLALVKSQDTEETITYTQCTDGYEWDPVRQQCKDIDECDIVPDACKGGMKCVNHYGGYLCLPKTAQIIVNNEQPQQETQPAEGTSGATTGVVAASSMATSGVLPGGGFVASAAAVAGPEMQTGRNNFVIRRNPADPQRIPSNPSHRIQCAAGYEQSEHNVCQDIDECTAGTHNCRADQVCINLRGSFACQCPPGYQKRGEQCVDIDECTIPPYCHQRCVNTPGSFYCQCSPGFQLAANNYTCVDINECDASNQCAQQCYNILGSFICQCNQGYELSSDRLNCEDIDECRTSSYLCQYQCVNEPGKFSCMCPQGYQVVRSRTCQDINECETTNECREDEMCWNYHGGFRCYPRNPCQDPYILTPENRCVCPVSNAMCRELPQSIVYKYMSIRSDRSVPSDIFQIQATTIYANTINTFRIKSGNENGEFYLRQTSPVSAMLVLVKSLSGPREHIVDLEMLTVSSIGTFRTSSVLRLTIIVGPFSF [EFEMP1] | -0.278 | 54.2 | 54.1 | -0.165 | 4.52 | 3.96 |
| MAANKPKGQNSLALHKVIMVGSGGVGKSALTLQFMYDEFVEDYEPTKADSYRKKVVLDGEEVQIDILDTAGQEDYAAIRDNYFRSGEGFLCVFSITEMESFAATADFREQILRVKEDENVPFLLVGNKSDLEDKRQVSVEEAKNRAEQWNVNYVETSAKTRANVDKVFFDLMREIRARKMEDSKEKNGKKKRKSLAKRIRERCCIL [RALA] | 0.0126 | 58.9 | 57.4 | -0.0413 | -3.71 | -3.15 |
| MSAIQAAWPSGTECIAKYNFHGTAEQDLPFCKGDVLTIVAVTKDPNWYKAKNKVGREGIIPANYVQKREGVKAGTKLSLMPWFHGKITREQAERLLYPPETGLFLVRESTNYPGDYTLCVSCDGKVEHYRIMYHASKLSIDEEVYFENLMQLVEHYTSDADGLCTRLIKPKVMEGTVAAQDEFYRSGWALNMKELKLLQTIGKGEFGDVMLGDYRGNKVAVKCIKNDATAQAFLAEASVMTQLRHSNLVQLLGVIVEEKGGLYIVTEYMAKGSLVDYLRSRGRSVLGGDCLLKFSLDVCEAMEYLEGNNFVHRDLAARNVLVSEDNVAKVSDFGLTKEASSTQDTGKLPVKWTAPEALREKKFSTKSDVWSFGILLWEIYSFGRVPYPRIPLKDVVPRVEKGYKMDAPDGCPPAVYEVMKNCWHLDAAMRPSFLQLREQLEHIKTHELHL [CSK] | 0.0872 | 49.3 | 49.8 | -0.139 | -0.12 | 0.74 |
| MQPDMSLNVIKMKSSDFLESAELDSGGFGKVSLCFHRTQGLMIMKTVYKGPNCIEHNEALLEEAKMMNRLRHSRVVKLLGVIIEEGKYSLVMEYMEKGNLMHVLKAEMSTPLSVKGRIILEIIEGMCYLHGKGVIHKDLKPENILVDNDFHIKIADLGLASFKMWSKLNNEEHNELREVDGTAKKNGGTLYYMAPEHLNDVNAKPTEKSDVYSFAVVLWAIFANKEPYENAICEQQLIMCIKSGNRPDVDDITEYCPREIISLMKLCWEANPEARPTFPGIEEKFRPFYLSQLEESVEEDVKSLKKEYSNENAVVKRMQSLQLDCVAVPSSRSNSATEQPGSLHSSQGLGMGPVEESWFAPSLEHPQEENEPSLQSKLQDEANYHLYGSRMDRQTKQQPRQNVAYNREEERRRRVSHDPFAQQRPYENFQNTEGKGTAYSSAASHGNAVHQPSGLTSQPQVLYQNNGLYSSHGFGTRPLDPGTAGPRVWYRPIPSHMPSLHNIPVPETNYLGNTPTMPFSSLPPTDESIKYTIYNSTGIQIGAYNYMEIGGTSSSLLDSTNTNFKEEPAAKYQAIFDNTTSLTDKHLDPIRENLGKHWKNCARKLGFTQSQIDEIDHDYERDGLKEKVYQMLQKWVMREGIKGATVGKLAQALHQCSRIDLLSSLIYVSQN [RIPK1] | 0.0577 | 48.4 | 48 | -0.114 | 0.9 | 1.82 |
